Measured values: patent US6617117

T1: GST-ATF2(19-96), P15336
T1 chain: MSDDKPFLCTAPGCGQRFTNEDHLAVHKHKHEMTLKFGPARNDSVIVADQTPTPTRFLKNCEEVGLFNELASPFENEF

T2: GST-cJun(1-194), P05412
T2 chain: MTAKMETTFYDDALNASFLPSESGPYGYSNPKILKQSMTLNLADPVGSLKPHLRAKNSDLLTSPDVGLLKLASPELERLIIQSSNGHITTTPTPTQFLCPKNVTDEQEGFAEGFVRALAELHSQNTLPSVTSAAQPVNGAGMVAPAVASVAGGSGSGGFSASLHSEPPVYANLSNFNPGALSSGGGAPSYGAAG

T3: GST-SAP1(267-431), P28324
T3 chain: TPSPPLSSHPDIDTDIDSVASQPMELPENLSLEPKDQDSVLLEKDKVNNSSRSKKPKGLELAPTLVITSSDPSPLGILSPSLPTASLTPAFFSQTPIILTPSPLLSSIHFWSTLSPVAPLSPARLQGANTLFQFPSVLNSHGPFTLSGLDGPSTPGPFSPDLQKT

T4: MalE-Mpk2, the Xenopus homologue of SAPK2a, P47812
T4 chain: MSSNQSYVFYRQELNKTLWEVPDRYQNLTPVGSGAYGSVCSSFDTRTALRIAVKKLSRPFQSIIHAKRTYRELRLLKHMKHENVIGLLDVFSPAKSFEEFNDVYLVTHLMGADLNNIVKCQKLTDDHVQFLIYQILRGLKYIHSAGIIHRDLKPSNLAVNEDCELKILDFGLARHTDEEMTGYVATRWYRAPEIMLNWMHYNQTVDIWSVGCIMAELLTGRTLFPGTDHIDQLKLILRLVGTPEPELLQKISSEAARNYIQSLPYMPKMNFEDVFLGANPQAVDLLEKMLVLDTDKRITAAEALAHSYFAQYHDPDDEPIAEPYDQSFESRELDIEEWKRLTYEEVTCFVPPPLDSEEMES

T5: rat GST-SAPK3, Q63538
T5 chain: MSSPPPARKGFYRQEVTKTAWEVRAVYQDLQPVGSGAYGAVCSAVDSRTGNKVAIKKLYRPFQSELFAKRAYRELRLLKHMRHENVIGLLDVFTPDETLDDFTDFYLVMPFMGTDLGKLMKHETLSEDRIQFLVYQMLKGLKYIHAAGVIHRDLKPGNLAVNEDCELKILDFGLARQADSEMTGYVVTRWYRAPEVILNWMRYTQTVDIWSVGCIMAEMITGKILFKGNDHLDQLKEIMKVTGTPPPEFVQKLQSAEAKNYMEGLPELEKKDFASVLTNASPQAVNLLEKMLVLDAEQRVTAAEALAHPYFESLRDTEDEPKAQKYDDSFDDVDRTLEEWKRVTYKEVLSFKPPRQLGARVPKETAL

T6: human GST-SAPK4
T6 chain: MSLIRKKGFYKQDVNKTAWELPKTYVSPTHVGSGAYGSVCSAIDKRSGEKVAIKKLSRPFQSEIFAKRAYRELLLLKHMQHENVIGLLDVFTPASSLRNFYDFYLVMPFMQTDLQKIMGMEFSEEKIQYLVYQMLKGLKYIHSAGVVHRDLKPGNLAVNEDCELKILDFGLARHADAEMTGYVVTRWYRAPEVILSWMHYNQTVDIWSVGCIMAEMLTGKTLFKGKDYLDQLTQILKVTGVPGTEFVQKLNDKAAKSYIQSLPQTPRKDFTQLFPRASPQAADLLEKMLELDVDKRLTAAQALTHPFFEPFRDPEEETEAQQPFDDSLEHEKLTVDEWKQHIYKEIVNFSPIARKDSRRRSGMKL


Key:
[1] = target: T1, GST-ATF2(19-96), P15336
[2] = target: T2, GST-cJun(1-194), P05412
[3] = target: GST-MAPKAP-K3, Q16644
[4] = target: MAPKAP-K2 (substrate of Table 1, construct not stated), P49137
[5] = target: T3, GST-SAP1(267-431), P28324
[6] = target: GST-SAP2(221-417) [GST: P08515]
[7] = target: GST-Elk1(307-428) [GST: P08515]
[8] = target: T4, MalE-Mpk2, the Xenopus homologue of …
[9] = target: T5, rat GST-SAPK3, Q63538
[10] = target: GST-SAPK4(D168A)
[11] = target: T6, human GST-SAPK4
[12] = target: GST-MAPKAP-K2(46-400), P49137
[13] = target: GST-MAPKAP-K2(5-400), P49137
GST-MAPKAP-K2(5-400), P49137, sequence (P49137 5-400): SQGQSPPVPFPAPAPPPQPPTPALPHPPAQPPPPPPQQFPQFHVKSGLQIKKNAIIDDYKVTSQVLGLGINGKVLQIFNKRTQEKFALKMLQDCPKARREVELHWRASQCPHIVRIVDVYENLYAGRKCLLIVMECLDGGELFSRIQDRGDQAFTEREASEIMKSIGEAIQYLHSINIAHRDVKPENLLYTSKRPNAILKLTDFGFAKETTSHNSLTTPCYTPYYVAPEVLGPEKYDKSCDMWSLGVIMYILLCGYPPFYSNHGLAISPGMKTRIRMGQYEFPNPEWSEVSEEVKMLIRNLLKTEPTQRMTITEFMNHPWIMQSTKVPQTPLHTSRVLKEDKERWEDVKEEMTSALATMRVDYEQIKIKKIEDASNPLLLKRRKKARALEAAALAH

GST-MAPKAP-K3, Q16644, sequence (Q16644 whole entry, looked up): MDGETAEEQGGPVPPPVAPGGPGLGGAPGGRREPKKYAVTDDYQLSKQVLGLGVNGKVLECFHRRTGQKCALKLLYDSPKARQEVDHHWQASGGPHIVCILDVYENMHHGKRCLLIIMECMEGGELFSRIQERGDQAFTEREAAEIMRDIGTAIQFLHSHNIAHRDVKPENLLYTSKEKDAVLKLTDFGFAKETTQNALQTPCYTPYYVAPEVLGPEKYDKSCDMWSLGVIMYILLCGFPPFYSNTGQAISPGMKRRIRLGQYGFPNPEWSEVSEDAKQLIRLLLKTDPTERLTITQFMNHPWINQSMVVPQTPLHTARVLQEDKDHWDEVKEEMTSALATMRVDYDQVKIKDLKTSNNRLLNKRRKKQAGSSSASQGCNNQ
MAPKAP-K2 (substrate of Table 1, construct not stated), P49137, sequence (P49137 46-400): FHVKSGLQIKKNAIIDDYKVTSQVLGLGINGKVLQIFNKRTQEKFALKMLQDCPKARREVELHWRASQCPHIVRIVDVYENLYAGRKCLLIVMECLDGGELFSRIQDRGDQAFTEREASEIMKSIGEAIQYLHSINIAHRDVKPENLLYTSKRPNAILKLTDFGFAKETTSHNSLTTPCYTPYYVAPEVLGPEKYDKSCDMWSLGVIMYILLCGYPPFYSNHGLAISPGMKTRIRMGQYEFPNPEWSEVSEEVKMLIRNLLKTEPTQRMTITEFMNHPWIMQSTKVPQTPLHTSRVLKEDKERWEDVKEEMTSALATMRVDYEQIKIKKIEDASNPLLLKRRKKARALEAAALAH
GST-MAPKAP-K2(46-400), P49137, sequence (P49137 46-400): as above

Protein | rate of phosphorylation of substrate (1 µM) relative to MBP (% of rate with MBP) [1] | rate of phosphorylation of substrate (1 µM) relative to MBP (% of rate with MBP) [2] | rate of phosphorylation of substrate (1 µM) relative to MBP (% of rate with MBP) [3] | rate of phosphorylation of substrate (1 µM) relative to MBP (% of rate with MBP) [4] | rate of phosphorylation of substrate (1 µM) relative to MBP (% of rate with MBP) [5] | rate of phosphorylation of substrate (1 µM) relative to MBP (% of rate with MBP) [6] | rate of phosphorylation of substrate (1 µM) relative to MBP (% of rate with MBP) [7] | phosphorylation sites on ATF2 (32P, mutants, phosphoamino acid analysis) [1] | rate of phosphorylation of substrate (1 µM) relative to MBP (relative to MBP (=100)) [1] | rate of phosphorylation of substrate (1 µM) relative to MBP (relative to MBP (=100)) [2] | rate of phosphorylation of substrate (1 µM) relative to MBP (relative to MBP (=100)) [5] | rate of phosphorylation of substrate (1 µM) relative to MBP (relative to MBP (=100)) [7] | other results
human GST-SAPK2b (protein) MSGPRAGFYRQELNKTVWEVPQRLQGLRPVGSGAYGSVCSAYDARLRQKVAVKKLSRPFQSLIHARRTYRELRLLKHLKHENVIGLLDVFTPATSIEDFSEVYLVTTLMGADLNNIVKCQALSDEHVQFLVYQLLRGLKYIHSAGIIHRDLKPSNVAVNEDCELRILDFGLARQADEEMTGYVATRWYRAPEIMLNWMHYNQTVDIWSVGCIMAELLQGKALFPGSDYIDQLKRIMEVVGTPSPEVLAKISSEHARTYIQSLPPMPQKDLSSIFRGANPLAIDLLGRMLVLDSDQRVSAAEALAHAYFSQYHDPEDEPEAEPYDESVEAKERTLEEWKELTYQEVLSFKPPEPPKPPGSLEIEQ | 62 | 7 | 66 | 83 | 27 | 18 | 136 | – | – | – | – | – | –
SKK3 purified from rabbit skeletal muscle (protein) MSQSKGKKRNPGLKIPKEAFEQPQTSSTPPRDLDSKACISIGNQNFEVKADDLEPIMELGRGAYGVVEKMRHVPSGQIMAVKRIRATVNSQEQKRLLMDLDISMRTVDCPFTVTFYGALFREGDVWICMELMDTSLDKFYKQVIDKGQTIPEDILGKIAVSIVKALEHLHSKLSVIHRDVKPSNVLINTLGQVKMCDFGISGYLVDSVAKTIDAGCKPYMAPERINPELNQKGYSVKSDIWSLGITMIELAILRFPYDSWGTPFQQLKQVVEEPSPQLPADKFSAEFVDFTSQCLKKNSKERPTYPELMQHPFFTVHESKATDVASFVKLILGD | – | – | – | – | – | – | – | – | – | – | – | – | activation of SAPK2 (MBP kinase activity) in vitro [8]: The rate of activation of SAPK3 by SKK3 was similar to that of SAPK2; activation of SAPK3 (MBP kinase activity) in vitro [9]: SAPK3 was activated in vitro by a highly purified preparation of SKK3 from skeletal muscle; 32P phosphorylation, phosphoamino acid analysis [10]: the inactive SAPK4 mutant could only be phosphorylated on tyrosine and not on threonine; activation of SAPK4 (MBP kinase activity) in vitro [11]: SAPK4 was activated in vitro by a highly purified preparation of SKK3 from skeletal muscle; phosphorylation stoichiometry at plateau [11]: reached a plateau at ˜1.6 mol/mol subunit; rate of activation compared with SAPK2a [11]: occurred two- to three-fold more slowly than that of SAPK2a
rat GST-SAPK3 (protein) MSSPPPARKGFYRQEVTKTAWEVRAVYQDLQPVGSGAYGAVCSAVDSRTGNKVAIKKLYRPFQSELFAKRAYRELRLLKHMRHENVIGLLDVFTPDETLDDFTDFYLVMPFMGTDLGKLMKHETLSEDRIQFLVYQMLKGLKYIHAAGVIHRDLKPGNLAVNEDCELKILDFGLARQADSEMTGYVVTRWYRAPEVILNWMRYTQTVDIWSVGCIMAEMITGKILFKGNDHLDQLKEIMKVTGTPPPEFVQKLQSAEAKNYMEGLPELEKKDFASVLTNASPQAVNLLEKMLVLDAEQRVTAAEALAHPYFESLRDTEDEPKAQKYDDSFDDVDRTLEEWKRVTYKEVLSFKPPRQLGARVPKETAL | – | – | 20 | 25 | – | – | – | SAPK2 and SAPK3 phosphorylate ATF2 at Thr69 and Thr-71, and that only SAPK3 phosphorylates Ser-90 | 107 | 2 | 108 | 181 | activation of MAPKAP-K2 (initial rate and half time for maximal activation) [12]: 20 times slower; activation of MAPKAP-K3 (initial rate and half time for maximal activation) [3]: 20 times slower; rate of phosphorylation of substrate (1 µM) relative to MBP (relative to MBP (=100)) [6]: 20
human GST-SAPK4 (protein) MSLIRKKGFYKQDVNKTAWELPKTYVSPTHVGSGAYGSVCSAIDKRSGEKVAIKKLSRPFQSEIFAKRAYRELLLLKHMQHENVIGLLDVFTPASSLRNFYDFYLVMPFMQTDLQKIMGMEFSEEKIQYLVYQMLKGLKYIHSAGVVHRDLKPGNLAVNEDCELKILDFGLARHADAEMTGYVVTRWYRAPEVILSWMHYNQTVDIWSVGCIMAEMLTGKTLFKGKDYLDQLTQILKVTGVPGTEFVQKLNDKAAKSYIQSLPQTPRKDFTQLFPRASPQAADLLEKMLELDVDKRLTAAQALTHPFFEPFRDPEEETEAQQPFDDSLEHEKLTVDEWKQHIYKEIVNFSPIARKDSRRRSGMKL | – | 6 | 18 | 28 | 62 | 8 | 175 | – | – | – | – | – | activation of MAPKAP-K2 (initial rate and half-time for maximal activation) [13]: 20 times slower; activation of MAPKAP-K3 (initial rate and half-time for maximal activation) [3]: 20 times slower
MalE-Mpk2, the Xenopus homologue of SAPK2a (protein) MSSNQSYVFYRQELNKTLWEVPDRYQNLTPVGSGAYGSVCSSFDTRTALRIAVKKLSRPFQSIIHAKRTYRELRLLKHMKHENVIGLLDVFSPAKSFEEFNDVYLVTHLMGADLNNIVKCQKLTDDHVQFLIYQILRGLKYIHSAGIIHRDLKPSNLAVNEDCELKILDFGLARHTDEEMTGYVATRWYRAPEIMLNWMHYNQTVDIWSVGCIMAELLTGRTLFPGTDHIDQLKLILRLVGTPEPELLQKISSEAARNYIQSLPYMPKMNFEDVFLGANPQAVDLLEKMLVLDTDKRITAAEALAHSYFAQYHDPDDEPIAEPYDQSFESRELDIEEWKRLTYEEVTCFVPPPLDSEEMES | 40 | 4 | 87 | 90 | 25 | – | 90 | SAPK2 and SAPK3 phosphorylate ATF2 at Thr69 and Thr-71, and that only SAPK3 phosphorylates Ser-90 | 86 | 2 | 55 | 122 | –
